Test results taken from patent publication US20130084298A1 (ACADEMIA SINICA, published 2013).

Target: T1, human clathrin heavy chain (CHC) (human, UniProt Q00610 2-1675)
T1 construct: Endogenous ~190 kDa protein of human cancer cell lines (MIA PaCa-2 and others); No recombinant construct was used; also called CLTC gene product
Assay: hybridoma mAb, target identification

T1 sequence (Q00610 2-1675 limits assumed): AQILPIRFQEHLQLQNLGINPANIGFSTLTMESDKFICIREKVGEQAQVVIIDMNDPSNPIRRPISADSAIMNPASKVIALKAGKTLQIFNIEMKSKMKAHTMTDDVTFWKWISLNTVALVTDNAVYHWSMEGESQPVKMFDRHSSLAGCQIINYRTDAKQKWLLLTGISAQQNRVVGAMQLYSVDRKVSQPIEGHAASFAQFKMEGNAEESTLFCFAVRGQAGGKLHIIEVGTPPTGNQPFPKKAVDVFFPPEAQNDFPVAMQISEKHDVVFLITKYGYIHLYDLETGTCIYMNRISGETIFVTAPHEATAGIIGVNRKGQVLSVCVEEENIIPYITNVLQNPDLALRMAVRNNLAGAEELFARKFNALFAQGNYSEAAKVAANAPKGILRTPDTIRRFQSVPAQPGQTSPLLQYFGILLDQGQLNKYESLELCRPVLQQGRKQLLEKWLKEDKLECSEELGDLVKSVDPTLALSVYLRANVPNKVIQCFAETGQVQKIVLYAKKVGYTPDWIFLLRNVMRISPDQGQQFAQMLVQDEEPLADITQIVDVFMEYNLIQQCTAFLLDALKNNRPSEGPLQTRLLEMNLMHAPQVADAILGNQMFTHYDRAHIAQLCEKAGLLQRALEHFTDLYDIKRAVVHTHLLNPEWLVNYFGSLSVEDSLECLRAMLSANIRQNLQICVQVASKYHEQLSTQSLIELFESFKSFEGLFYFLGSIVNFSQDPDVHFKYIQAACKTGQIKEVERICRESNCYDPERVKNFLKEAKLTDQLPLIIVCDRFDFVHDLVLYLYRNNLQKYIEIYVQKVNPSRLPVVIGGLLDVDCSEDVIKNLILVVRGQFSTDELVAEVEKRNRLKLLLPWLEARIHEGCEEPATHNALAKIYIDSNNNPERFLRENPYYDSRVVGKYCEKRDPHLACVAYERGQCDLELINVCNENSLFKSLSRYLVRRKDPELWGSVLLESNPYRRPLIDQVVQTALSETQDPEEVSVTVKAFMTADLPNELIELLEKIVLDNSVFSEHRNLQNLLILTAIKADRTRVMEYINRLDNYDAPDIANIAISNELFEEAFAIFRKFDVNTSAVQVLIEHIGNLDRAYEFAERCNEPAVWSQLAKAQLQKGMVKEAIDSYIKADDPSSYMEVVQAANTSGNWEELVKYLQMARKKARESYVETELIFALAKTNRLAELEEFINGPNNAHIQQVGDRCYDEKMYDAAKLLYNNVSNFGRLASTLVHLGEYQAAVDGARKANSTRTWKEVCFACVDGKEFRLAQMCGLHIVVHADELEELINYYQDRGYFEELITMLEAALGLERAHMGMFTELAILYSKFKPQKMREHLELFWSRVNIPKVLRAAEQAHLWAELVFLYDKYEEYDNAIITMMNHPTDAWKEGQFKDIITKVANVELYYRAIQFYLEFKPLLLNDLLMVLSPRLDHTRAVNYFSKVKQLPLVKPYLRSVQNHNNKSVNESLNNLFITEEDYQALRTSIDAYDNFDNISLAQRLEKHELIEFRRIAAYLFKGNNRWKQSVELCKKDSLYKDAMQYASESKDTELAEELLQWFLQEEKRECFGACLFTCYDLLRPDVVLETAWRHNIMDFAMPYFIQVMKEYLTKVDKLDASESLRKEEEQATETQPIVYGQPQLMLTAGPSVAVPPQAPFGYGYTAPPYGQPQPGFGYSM

B1: Pa65-2 (antibody, V domains shown)
VH: EVKLVESGGGLVKPGGSLNISCAASGFTFSNYVMSWVRQTPEKRLEWVATISSGDNYMYYPDSVKGRFTISSDNAKNTLFLQMSSLRSEDTALYYCARHFDNYEGNSMDYWGQGTSVTVSS
VL: DIVLTQSPATLSVTPGDSVSLSCRASQSIRSNLHWYQQKSHESPRLLIKYASQSISGIPSRFSGSGSGTDFILSINSVATEDFGVYFCQQSNSWPLTFGAGTKLELKR
notes: also called Pa65-2 mAb; anti-CHC monoclonal antibody
Q: Does B1 bind?
A: binds
